The text below walks through data of article PMC2734569, “Functional mapping of the fission yeast DNA polymerase δ B-subunit Cdc1 by site-directed and random pentapeptide insertion mutagenesis” (BMC Molecular Biology, 2009).

The target of assay [1] is T1, Cdc1-J22 (Schizosaccharomyces pombe, UniProt P87324 1-462, Arg-GlyValProLeuArg-Gly).
T1 construct: Cdc1, S. pombe, with a pentapeptide inserted after residue 212; source: yeast two-hybrid fusion, in S. cerevisiae CTY10-5d
T1 sequence (looked up): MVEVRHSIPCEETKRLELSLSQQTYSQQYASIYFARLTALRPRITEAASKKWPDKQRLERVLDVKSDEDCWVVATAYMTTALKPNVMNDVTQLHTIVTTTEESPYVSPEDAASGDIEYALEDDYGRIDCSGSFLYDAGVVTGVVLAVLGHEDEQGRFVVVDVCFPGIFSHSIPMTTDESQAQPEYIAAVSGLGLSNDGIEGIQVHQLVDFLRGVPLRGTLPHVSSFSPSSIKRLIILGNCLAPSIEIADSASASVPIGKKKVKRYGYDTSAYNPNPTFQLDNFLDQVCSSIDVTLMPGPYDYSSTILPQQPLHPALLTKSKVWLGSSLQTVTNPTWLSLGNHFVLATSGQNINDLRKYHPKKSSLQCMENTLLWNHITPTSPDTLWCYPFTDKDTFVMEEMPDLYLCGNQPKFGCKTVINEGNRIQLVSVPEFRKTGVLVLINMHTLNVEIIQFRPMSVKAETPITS
The assay can be described thus: two-hybrid; LexA-Cdc1 bait (pBTM116 or pBTM116BN) with Gal4 activation domain-Cdc27 prey (pGAD2F-Cdc27) in S. cerevisiae CTY10-5d; ONPG liquid culture beta-galactosidase assay, mean of triplicates, as percent of wild-type Cdc1. The settings on record: partners not purified.

Assay [2] concerns the target T2, Cdc1-A8 (Schizosaccharomyces pombe, UniProt P87324 1-462, Pro374Ala).
T2 construct: Cdc1, S. pombe, point mutant; source: yeast two-hybrid fusion, in S. cerevisiae CTY10-5d
T2 sequence (looked up): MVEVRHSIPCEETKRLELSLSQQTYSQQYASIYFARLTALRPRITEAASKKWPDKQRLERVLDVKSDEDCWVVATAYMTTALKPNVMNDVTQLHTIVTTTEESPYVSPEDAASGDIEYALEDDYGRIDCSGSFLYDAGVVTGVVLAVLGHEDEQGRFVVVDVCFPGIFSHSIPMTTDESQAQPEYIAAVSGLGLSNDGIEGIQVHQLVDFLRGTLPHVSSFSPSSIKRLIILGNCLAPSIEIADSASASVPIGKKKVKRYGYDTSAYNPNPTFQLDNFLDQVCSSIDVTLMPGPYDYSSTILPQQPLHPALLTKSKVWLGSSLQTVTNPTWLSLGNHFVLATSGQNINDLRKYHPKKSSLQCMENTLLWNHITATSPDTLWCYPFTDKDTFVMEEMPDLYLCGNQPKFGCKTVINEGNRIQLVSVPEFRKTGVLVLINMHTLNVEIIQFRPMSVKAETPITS
The assay is described as above. The settings on record: partners not purified.

Assay [3] deals with Cdc1-J17 (Schizosaccharomyces pombe) (UniProt P87324). Described as above.
Assay [4] deals with T3, Cdc1 (fission yeast DNA polymerase delta B-subunit), wild type (Schizosaccharomyces pombe, UniProt P87324 1-462).
T3 construct: DNA polymerase delta B-subunit Cdc1, S. pombe; cdc1+ cDNA on a 1.5 kb BamHI fragment from pBTM116-Cdc1, ORF 1386 bp; also called WT; LexA-Cdc1; source: yeast two-hybrid fusion, in S. cerevisiae CTY10-5d
T3 sequence (looked up): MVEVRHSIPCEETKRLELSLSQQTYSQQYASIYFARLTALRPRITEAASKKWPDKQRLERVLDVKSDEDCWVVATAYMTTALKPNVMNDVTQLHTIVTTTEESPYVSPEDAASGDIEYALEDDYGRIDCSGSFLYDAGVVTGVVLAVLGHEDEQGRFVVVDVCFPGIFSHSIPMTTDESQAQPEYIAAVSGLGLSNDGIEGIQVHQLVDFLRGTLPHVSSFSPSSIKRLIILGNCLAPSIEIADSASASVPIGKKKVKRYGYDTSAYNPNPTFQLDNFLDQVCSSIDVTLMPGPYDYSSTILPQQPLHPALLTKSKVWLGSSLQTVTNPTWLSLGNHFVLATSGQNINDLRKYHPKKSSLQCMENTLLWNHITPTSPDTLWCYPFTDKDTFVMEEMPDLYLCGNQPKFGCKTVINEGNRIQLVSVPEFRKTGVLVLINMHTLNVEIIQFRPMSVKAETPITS
Briefly: two-hybrid; LexA-Cdc1 bait (pBTM116 or pBTM116BN) with Gal4-Pol3 prey and co-expressed c-myc-tagged Cdc27 (pAA-Cdc27) in S. cerevisiae CTY10-5d; ONPG liquid culture beta-galactosidase assay, mean of triplicates, as percent of wild-type Cdc1. The settings on record: partners not purified.

The target in assay [5] is T4, Cdc1-J2 (Schizosaccharomyces pombe, UniProt P87324 1-462, Tyr-ArgGlyThrProTyr-Ser).
T4 construct: Cdc1, S. pombe, with a pentapeptide inserted after residue 25; also called J18; J20; source: yeast two-hybrid fusion, in S. cerevisiae CTY10-5d
T4 sequence (looked up): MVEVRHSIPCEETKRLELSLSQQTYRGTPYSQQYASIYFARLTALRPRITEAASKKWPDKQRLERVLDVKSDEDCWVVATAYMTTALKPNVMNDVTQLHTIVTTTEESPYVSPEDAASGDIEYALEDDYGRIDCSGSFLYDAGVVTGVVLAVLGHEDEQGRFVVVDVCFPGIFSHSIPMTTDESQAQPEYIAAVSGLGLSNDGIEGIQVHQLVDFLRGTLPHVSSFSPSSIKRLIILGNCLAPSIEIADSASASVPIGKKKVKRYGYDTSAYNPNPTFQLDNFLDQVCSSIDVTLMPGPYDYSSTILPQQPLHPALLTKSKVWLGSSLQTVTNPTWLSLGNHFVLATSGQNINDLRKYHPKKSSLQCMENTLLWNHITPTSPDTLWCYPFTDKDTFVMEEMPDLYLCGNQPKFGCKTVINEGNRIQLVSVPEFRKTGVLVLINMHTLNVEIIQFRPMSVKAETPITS
The description is as above. To be noted: partners not purified.

B1: Cdc27 (fission yeast DNA polymerase delta C-subunit) (natural protein, Schizosaccharomyces pombe, UniProt P30261 1-372, looked up)
chain: MEEWRNFLDIKVINESSLVTVDNLSLQLDISSEKAQEYLNMFYQGNDFLYPIYLIHGQPIDDEINLEIDEESQPISNFPVLQYILCDKSSLQEKQSRLKSGYKTVIFALSSAPLSDFDELLPAVYEIREKDVLYKKEDADKYGFIFNENSVPRVLKKAPSTHSPQLSVPSKTSTIDKTDTRSTEKTKGKDIFSNARNQKGNSSRKNKKAPLENHKEKEPLLPKEEKLSEQAKRERDDLKNIMQLEDESVSTTSVHDSEDDNLDSNNFQLEIGTEAKSAAPDEPQEIIKSVSGGKRRGKRKVKKYATTKDEEGFLVTKEEEVWESFSEDENISTGTSNVVRNKPTTVNIATKKKNTAQSKPQQKSIMSFFGKK
notes: DNA polymerase delta C-subunit Cdc27, S. pombe; prey plasmid pGAD2F-Cdc27; also called pGAD2F-Cdc27; source: yeast two-hybrid fusion, in S. cerevisiae CTY10-5d
Turning to B1, the entries for the “two-hybrid beta-galactosidase activity, % of wild-type Cdc1” value in assay [1], in assay [2] and in assay [3] were 7%, 8% and less than 1%, respectively.

B2: Pol3 (fission yeast DNA polymerase delta catalytic subunit) (natural protein, Schizosaccharomyces pombe, UniProt P30316 1-1086, looked up)
chain: MTDRSSNEGVVLNKENYPFPRRNGSIHGEITDVKRRRLSERNGYGDKKGSSSKEKTSSFEDELAEYASQLDQDEIKSSKDQQWQRPALPAINPEKDDIYFQQIDSEEFTEGSVPSIRLFGVTDNGNSILVHVVGFLPYFYVKAPVGFRPEMLERFTQDLDATCNGGVIDHCIIEMKENLYGFQGNEKSPFIKIFTTNPRILSRARNVFERGEFNFEELFPVGVGVTTFESNTQYLLRFMIDCDVVGMNWIHLPASKYQFRYQNRVSNCQIEAWINYKDLISLPAEGQWSKMAPLRIMSFDIECAGRKGVFPDPSIDPVIQIASIVTQYGDSTPFVRNVFCVDTCSQIVGTQVYEFQNQAEMLSSWSKFVRDVDPDVLIGYNICNFDIPYLLDRAKSLRIHNFPLLGRIHNFFSVAKETTFSSKAYGTRESKTTSIPGRLQLDMLQVMQRDFKLRSYSLNAVCSQFLGEQKEDVHYSIITDLQNGTADSRRRLAIYCLKDAYLPQRLMDKLMCFVNYTEMARVTGVPFNFLLARGQQIKVISQLFRKALQHDLVVPNIRVNGTDEQYEGATVIEPIKGYYDTPIATLDFSSLYPSIMQAHNLCYTTLLDSNTAELLKLKQDVDYSVTPNGDYFVKPHVRKGLLPIILADLLNARKKAKADLKKETDPFKKAVLDGRQLALKVSANSVYGFTGATNGRLPCLAISSSVTSYGRQMIEKTKDVVEKRYRIENGYSHDAVVIYGDTDSVMVKFGVKTLPEAMKLGEEAANYVSDQFPNPIKLEFEKVYFPYLLISKKRYAGLFWTRTDTYDKMDSKGIETVRRDNCPLVSYVIDTALRKMLIDQDVEGAQLFTKKVISDLLQNKIDMSQLVITKALSKTDYAAKMAHVELAERMRKRDAGSAPAIGDRVAYVIIKGAQGDQFYMRSEDPIYVLENNIPIDAKYYLENQLSKPLLRIFEPILGEKASSLLHGDHTRTISMAAPSVGGIMKFAVKVETCLGCKAPIKKGKTALCENCLNRSAELYQRQVAQVNDLEVRFARLWTQCQRCQGSMHQDVICTSRDCPIFYMRIAEHKKLQQSVDLLKRFDEMSW
notes: DNA polymerase delta catalytic subunit Pol3, S. pombe; prey plasmid named pACT-Pol3 in the results and pGAD2F-Pol3 in the methods; also called Gal4-Pol3; pACT-Pol3; source: yeast two-hybrid fusion, in S. cerevisiae CTY10-5d
As for B2, the “two-hybrid beta-galactosidase activity, % of wild-type Cdc1” value in assay [4] stood at 100%; in assay [5] it was 46%.
